IC50 for inhibition of rrnB P1 transcription, multiround in vitro transcription with E. coli RNAP (4 nM to 2,000 nM factor) data for one substance are collected here from paper PMC9239242.

The target of the assay is E. coli RNA polymerase holoenzyme (native) (E. coli) (UniProt P0A8V2).

As for “P2 Orf82 (Orf82 from Enterobacteria phage P2) (natural protein)”, the IC50 for inhibition of rrnB P1 transcription, multiround in vitro transcription with E. coli RNAP (4 nM to 2,000 nM factor) came to 250 nM.
